{"source": "paper PMC8444148", "about": "(Molecular psychiatry, 2019)", "binders": {"B1": {"name": "ATF4 leucine zipper domain (residues 314-349) (domain or fragment, UniProt Q06507 314-349, looked up)", "chain": "KNEALKEKADSLAKEIQYLKDLIEEVRKARGKKRVP"}, "B2": {"name": "DISC1-CC (coiled coil, residues 765-835) (domain or fragment, UniProt Q811T9-1 765-835, looked up)", "chain": "GPWKEDSHIVSAEVGEKCEAIGVKLLHLEDQLLGAMYSHDEALFQSLQGELQTVKETLQAMILQLQPTKEA"}, "B3": {"name": "DISC1 322-852 (predicted helical region of DISC1) (domain or fragment, UniProt Q811T9-1 322-852, looked up)", "chain": "ADAHGWHTLLREWEPMLQDYLLSNRRQLEVTSLILKLQKCQEKVVEDGDYDTAETLRQRLEELEQEKGRLSWALPSQQPALRSFLGYLAAQIQVALHGATQRAGSDDPEAPLEGQLRTTAQDSLPASITRRDWLIREKQRLQKEIEALQARMSALEAKEKRLSQELEEQEVLLRWPGCDLMALVAQMSPGQLQEVSKALGETLTSANQAPFQVEPPETLRSLRERTKSLNLAVRELTAQVCSGEKLCSSLRRRLSDLDTRLPALLEAKMLALSGSCFSTAKELTEEIWALSSEREGLEMFLGRLLALSSRNSRRLGIVKEDHLRCRQDLALQDAAHKTRMKANTVKCMEVLEGQLSSCRCPLLGRVWKADLETCQLLMQSLQLQEAGSSPHAEDEEQVHSTGEAAQTAALAVPRTPHPEEEKSPLQVLQEWDTHSALSPHCAAGPWKEDSHIVSAEVGEKCEAIGVKLLHLEDQLLGAMYSHDEALFQSLQGELQTVKETLQAMILQLQPTKEAGEASASYPTAGAQETEA"}, "B4": {"name": "CRE dsDNA (dsDNA)", "DNA 1": "GCAGATGACGTCATCTGC", "DNA 2": "GCAGATGACGTCATCTGC"}}, "key": {"[1]": {"biological_target": "B3", "experiment": "ITC"}, "C/EBPα": {"biological_target": "C/EBPα (UniProt P53566 1-359)", "sequence (P53566 whole entry)": "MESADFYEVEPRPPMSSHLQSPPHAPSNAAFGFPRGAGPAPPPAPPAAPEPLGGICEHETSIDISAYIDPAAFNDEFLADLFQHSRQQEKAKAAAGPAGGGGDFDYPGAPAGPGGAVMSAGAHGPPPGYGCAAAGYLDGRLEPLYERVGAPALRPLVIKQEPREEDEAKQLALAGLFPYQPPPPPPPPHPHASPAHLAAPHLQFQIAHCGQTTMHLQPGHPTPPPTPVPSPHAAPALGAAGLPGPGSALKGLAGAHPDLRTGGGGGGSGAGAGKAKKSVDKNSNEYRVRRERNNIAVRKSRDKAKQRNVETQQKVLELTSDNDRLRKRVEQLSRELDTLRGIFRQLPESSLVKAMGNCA", "experiment": "ITC"}, "C/EBPζ (CHOP)": {"biological_target": "C/EBPζ (CHOP) (UniProt P35639 1-168)", "sequence (P35639 whole entry)": "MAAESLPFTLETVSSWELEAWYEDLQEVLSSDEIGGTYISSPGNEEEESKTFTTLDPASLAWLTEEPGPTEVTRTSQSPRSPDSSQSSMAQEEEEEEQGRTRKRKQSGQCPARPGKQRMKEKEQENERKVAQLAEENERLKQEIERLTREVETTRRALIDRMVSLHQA", "experiment": "ITC"}, "[2]": {"biological_target": "B1", "experiment": "ITC"}, "SEC-MALS": {"biological_target": "the molecule itself", "experiment": "SEC-MALS"}, "[3]": {"biological_target": "T1, ATF4 278-349 (basic region + leucine zipper) (UniProt Q06507 278-349)", "T1 sequence": "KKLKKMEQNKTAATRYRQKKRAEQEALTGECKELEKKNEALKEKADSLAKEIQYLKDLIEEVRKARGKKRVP", "experiment": "ITC"}}, "data": [{"binder": "B1", "values": [{"measurement": "Kd", "setting": "[1]", "value": "~14", "unit": "nM"}]}, {"binder": "B2", "values": [{"measurement": "Kd", "setting": "C/EBPα", "value": "~11000", "unit": "nM"}, {"measurement": "fold weaker than the DISC1/ATF4 interaction", "setting": "C/EBPζ (CHOP)", "value": "~2000", "unit": "fold"}]}, {"binder": "B3", "values": [{"measurement": "stoichiometry N", "setting": "[2]", "value": 1}]}, {"binder": "KNEALKEKADSLAKEIQYLKDLIEEVRKARGKKRVP (domain or fragment, UniProt Q06507 314-349, looked up)", "note": "[trx tagged-ATF4-LZ]", "values": [{"measurement": "stoichiometry N", "setting": "SEC-MALS", "value": 2}]}, {"binder": "B4", "values": [{"measurement": "Kd", "setting": "[3]", "value": "~12", "unit": "nM"}]}]}
